# Results reported in patent publication US20250340660A1 (published 2025).
# Where a chain is given by its changes, count along the chain named.
# T1: human CD30L expressed on cells (B16-huCD30L; HEK293 cells over-expressing TNFSF8) (human, UniProt P32971 1-234)
# T1 sequence: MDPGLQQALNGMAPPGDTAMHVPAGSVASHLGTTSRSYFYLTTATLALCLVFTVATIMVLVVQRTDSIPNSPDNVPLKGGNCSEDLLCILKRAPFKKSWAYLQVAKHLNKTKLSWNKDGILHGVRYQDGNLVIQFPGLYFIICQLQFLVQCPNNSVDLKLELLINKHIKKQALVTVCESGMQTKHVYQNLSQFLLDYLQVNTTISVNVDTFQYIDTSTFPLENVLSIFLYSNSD
# T2: cynomolgus CD30L expressed on HEK293 cells (cynomolgus, UniProt A0A7N9CVX7 1-234)
# T2 sequence: T1 sequence with A19T, M20T, G32E, L41F, V75I, K78R, I204V, I227V
# T3: human CD30L expressed on cells (human, UniProt P32971 1-234)
# T3 construct: whole, on cells; The assay field of each row tells which cells carried it; also called huCD30L; B16-huCD30L cells
# T3 sequence (looked up): T1 sequence
# T4: recombinant human CD30L protein (human, UniProt P32971 63-234, limits assumed)
# T4 construct: Used for ELISA, BLI, Carterra, KinExA; also called rhCD30L; purified human CD30L
# T4 sequence (looked up): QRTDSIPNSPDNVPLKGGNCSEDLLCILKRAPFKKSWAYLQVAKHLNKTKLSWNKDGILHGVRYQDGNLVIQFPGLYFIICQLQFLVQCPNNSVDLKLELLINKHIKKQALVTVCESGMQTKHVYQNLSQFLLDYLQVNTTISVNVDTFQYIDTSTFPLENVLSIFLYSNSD
# T5: mouse CD30L (mouse, UniProt P32972 68-239, limits assumed)
# T5 construct: also called rmCD30L
# T5 sequence (looked up): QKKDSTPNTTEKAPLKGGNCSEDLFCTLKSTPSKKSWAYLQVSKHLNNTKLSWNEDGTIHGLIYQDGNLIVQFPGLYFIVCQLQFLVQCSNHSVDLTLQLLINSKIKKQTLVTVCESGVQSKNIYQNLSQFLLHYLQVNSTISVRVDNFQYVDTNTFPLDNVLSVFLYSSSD
# B1: anti-CD30L antibody Clone 2 (parental) (antibody, V domains shown)
# VH: EVQLVESGGGLVQPGRSLRLSCAASGFNFDDYAMHWVRQAPGKGLEWVSGISWRSGNIGYAGSVKGRFTISRDNAKNSLYLQMNSLRPEDSALYYCAKDKGIGFNWNYEGFDYWGQGTLVTVSS
# VL: DIQMTQSPSSLSASVGDRVTITCRASQGISNHLAWFQQKPGKAPKSLIYAASSLQSGVPSKFSGSGSGTDFTLTISSLQPEDFATYYCQQYVTYPLTFGGGTKVEIK
# B2: Clone 2, fluorescently labeled (format not stated in Table 7) (antibody, V domains shown)
# VH: B1 VH
# VL: B1 VL
# modifications: fluorescent label (site not stated)
# notes: The variable domains are those of parental clone 2
# B3: Fab of anti-CD30L clone 2 germlined (Fab, V domains shown)
# VH: B1 VH with G62D, P88A, S91T
# VL: B1 VL with K61R
# notes: Fab; also called germlined-clone-2 Fab; germlined-clone-2-Fab
# B4: anti-CD30L antibody clone 2 germlined (antibody, V domains shown)
# VH: B1 VH with G62D, P88A, S91T
# VL: B1 VL with K61R
# notes: also called germlined clone 2
# B5: clone 111, function blocking rat anti-mouse CD30L antibody (antibody, mouse IgG2a, V domains shown)
# VH: EVKLQQSGDELVRPGASVKMSCKASGYTFTDYAMHWVKQSPGQGLEWIGSIIPLIDTTSYNQKFKGKATLTADKSSNTAYMELSRLTSEDSAVYYCARLGSRYLEGFDYWGQGVMVTVSS
# VL: DIQMTQSPSSMSASLGDTVTINCLASQDIGNYLSWYQQKPGKSPKLMIYGATNLEDGVPSRFSGSGSGSDYSLTINSLGYDDEGIYHCHQYYEYPLTFGSGTKLEIK
# notes: Rat antibody as found in the screen
# B6: Clone 1, fluorescently labeled (format not stated in Table 7) (antibody, V domains shown)
# VH: QVQLQESGPGLVKPSETLSLTCTVSGGSISGYYWSWIRQPPVKGLEWIGYIFYSGYTKYNPSLKSRVTISVDTSKNQFSLKLSSVTAADTAVYYCARDRWDFDYWGQGALVTVSS
# VL: AIQMTQSPSYLSASVGDRVTIACRASQGIRNNLGWYQQKPGKAPKLLIYAESSLQSGVPSRFSGSGSGTDFTLTISSLQPEDFATYYCLQDFNYPYTFGQGTKLEIK
# modifications: fluorescent label (site not stated)
# notes: The variable domains are those of parental clone 1
# Columns and labels:
# [1] = target: T1, human CD30L expressed on cells …; experiment: cell-based or functional assay
# [2] = target: T2, cynomolgus CD30L expressed on HEK293 …; experiment: cell-based or functional assay
# [3] = target: T3, human CD30L expressed on cells; experiment: flow cytometry, labelled antibody on PMA/ionomycin-stimulated primary lymphocytes, Patient 4 (CD, #01-051)
# From the text: (§1) Peripheral blood mononuclear cells (PBMCs) were isolated from freshly collected whole blood from Ulcerative Colitis (UC) and Crohn's Disease (CD) patients, by conventional density gradient centrifugation. […] After washing to remove unbound antibodies, the cells were fixed in a paraformaldehyde solution and analyzed by flow cytometry to quantify cell surface antibody binding.
# [4] = target: T3, human CD30L expressed on cells; experiment: flow cytometry, labelled antibody on PMA/ionomycin-stimulated primary lymphocytes, Patient 1 (CD, #04-021)
# From the text: as §1
# [5] = target: T3, human CD30L expressed on cells; experiment: flow cytometry, labelled antibody on PMA/ionomycin-stimulated primary lymphocytes, Patient 3 (UC, #02-180)
# From the text: as §1
# [6] = target: T3, human CD30L expressed on cells; experiment: flow cytometry, labelled antibody on PMA/ionomycin-stimulated primary lymphocytes, Patient 2 (UC, #03-041)
# From the text: as §1
# [7] = target: T4, recombinant human CD30L protein; experiment: KinExA, Fab in solution; reference: Fab of Ref1
# From the text: A KD analysis requires immobilization of one interaction partner to a solid phase which is then used as a probe to capture the other interaction partner, the constant binding partner (Fab). […] The solutions are then briefly exposed to the solid phase and a portion of free Fab is captured. The captured Fab is then labeled with a fluorescent secondary molecule. The short contact time with the solid phase is less than the time needed for dissociation of the pre-formed complex in solution, thus competition between the solution and the solid phase titrated binding partner is kinetically excluded.
# [8] = target: T1, human CD30L expressed on cells …; experiment: flow cytometry, blocking of recombinant CD30-Fc binding to CD30L-expressing cells; reference Ref1
# [9] = target: T2, cynomolgus CD30L expressed on HEK293 …; experiment: as above
# mouse CD30L = target: T5, mouse CD30L; experiment: screening of a rat campaign with mouse CD30L antigen
Binder,EC50 [3] [nM],EC50 [4] [nM],EC50 [5] [nM],EC50 [6] [nM],further results
B1,,,,,"fold better IC50 than Ref1, IL-8 release dual cell assay [1]: 2 fold; fold better IC50 than Ref1, IL-8 release dual cell assay [2]: 2.6 fold"
B2,1.72,2.4,1.71,1.55,
B3,,,,,fold KD against the reference 1 anti-CD30L [7]: 4.2 fold
B4,,,,,fold better IC50 than Ref1 [8]: 2.74 fold; fold better IC50 than Ref1 [9]: 2.13 fold
B5,,,,,binding result (mouse CD30L): binds
B6,4.53,7.45,5.57,5.43,
